Laboratory results: patent US20150132310A1

How the values were obtained:
[1] = biological target: human recombinant CD11b I domain (N-terminal 6x-His, C-terminal 6x-glycine linker and 3x-Flag) (human) (UniProt P11215); assay: SPR (Biacore T100), human I domain immobilised on CM5 chip, LukAB as analyte, multi cycle kinetics
cDNA FLJ78440 (human) = cDNA FLJ78440 (human) (UniProt A8K494); assay: His-LukAB pull-down from solubilised primary human PMNs on nickel resin, mass spectrometry
CD63 antigen (human) = CD63 antigen (human) (UniProt P08962); assay: as above
UniProt P08962, sequence (P08962 2-238 limits assumed): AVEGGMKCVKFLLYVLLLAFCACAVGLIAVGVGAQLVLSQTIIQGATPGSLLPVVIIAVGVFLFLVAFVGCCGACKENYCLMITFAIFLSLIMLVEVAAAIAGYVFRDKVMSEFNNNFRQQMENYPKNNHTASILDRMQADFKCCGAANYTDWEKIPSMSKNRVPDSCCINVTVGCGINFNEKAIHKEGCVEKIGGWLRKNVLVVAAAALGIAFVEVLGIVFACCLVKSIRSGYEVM

SFPQ protein (human) = assay: as above
[2] = biological target: Mitogen-activated protein kinase 1 (human) (UniProt P28482); assay: as above
UniProt P28482, sequence (P28482 2-360 limits assumed): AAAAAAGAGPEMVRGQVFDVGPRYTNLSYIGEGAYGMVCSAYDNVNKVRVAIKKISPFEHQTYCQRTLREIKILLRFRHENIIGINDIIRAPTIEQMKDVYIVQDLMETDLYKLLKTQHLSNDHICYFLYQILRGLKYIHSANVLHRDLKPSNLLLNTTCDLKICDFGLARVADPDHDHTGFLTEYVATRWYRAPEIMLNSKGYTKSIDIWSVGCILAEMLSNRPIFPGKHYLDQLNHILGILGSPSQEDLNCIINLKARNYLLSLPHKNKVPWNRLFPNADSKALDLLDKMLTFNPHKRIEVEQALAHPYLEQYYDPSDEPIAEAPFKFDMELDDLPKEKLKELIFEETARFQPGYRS

Myeloperoxidase (human) = Myeloperoxidase (human) (UniProt P05164); assay: as above
[3] = biological target: Glucose-6-phosphate isomerase (human) (UniProt P06744); assay: as above
[4] = biological target: Protein tyrosine phosphatase (human) (UniProt P08575); assay: as above
Cntm_P13645 = Cntm_P13645 (UniProt P13645); assay: as above
[5] = biological target: E3 ubiquitin-protein ligase CBL (human) (UniProt P22681); assay: as above
Transketolase (human) = Transketolase (human) (UniProt P29401); assay: as above
[6] = biological target: Beta-adrenergic receptor kinase 1 (human) (UniProt P25098); assay: as above
[7] = biological target: human CD18 (Integrin beta 2) (human); assay: as above
cDNA FLJ55635 (human) = assay: as above
cDNA FLJ55635 (human), sequence (O43143 whole entry): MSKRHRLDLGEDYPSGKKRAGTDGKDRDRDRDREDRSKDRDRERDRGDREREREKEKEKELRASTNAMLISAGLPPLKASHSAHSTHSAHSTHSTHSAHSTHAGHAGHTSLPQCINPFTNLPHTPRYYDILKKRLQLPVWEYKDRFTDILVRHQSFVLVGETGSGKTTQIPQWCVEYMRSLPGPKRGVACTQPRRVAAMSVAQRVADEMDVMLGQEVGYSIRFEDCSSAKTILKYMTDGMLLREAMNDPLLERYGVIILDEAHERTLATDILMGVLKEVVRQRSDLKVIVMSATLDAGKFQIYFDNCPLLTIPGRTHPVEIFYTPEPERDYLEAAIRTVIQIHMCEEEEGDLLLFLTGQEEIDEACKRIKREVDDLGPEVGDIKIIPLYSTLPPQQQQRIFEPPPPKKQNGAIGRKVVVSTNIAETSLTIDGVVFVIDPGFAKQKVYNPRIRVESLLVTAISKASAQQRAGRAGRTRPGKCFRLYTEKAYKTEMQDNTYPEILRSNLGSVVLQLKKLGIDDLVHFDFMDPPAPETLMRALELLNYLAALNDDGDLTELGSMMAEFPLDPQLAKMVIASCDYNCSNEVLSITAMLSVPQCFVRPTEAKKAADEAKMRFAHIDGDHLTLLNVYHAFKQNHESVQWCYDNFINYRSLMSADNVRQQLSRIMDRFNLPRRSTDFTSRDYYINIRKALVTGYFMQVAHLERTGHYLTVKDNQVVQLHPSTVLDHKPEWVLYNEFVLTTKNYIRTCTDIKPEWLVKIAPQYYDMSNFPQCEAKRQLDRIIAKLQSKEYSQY

[8] = biological target: Glyceraldehyde-3-phosphate dehydrogenase (human) (UniProt P04406); assay: as above
cDNA FLJ53963 (human) = assay: as above
cDNA FLJ53963 (human), sequence (P30740 whole entry): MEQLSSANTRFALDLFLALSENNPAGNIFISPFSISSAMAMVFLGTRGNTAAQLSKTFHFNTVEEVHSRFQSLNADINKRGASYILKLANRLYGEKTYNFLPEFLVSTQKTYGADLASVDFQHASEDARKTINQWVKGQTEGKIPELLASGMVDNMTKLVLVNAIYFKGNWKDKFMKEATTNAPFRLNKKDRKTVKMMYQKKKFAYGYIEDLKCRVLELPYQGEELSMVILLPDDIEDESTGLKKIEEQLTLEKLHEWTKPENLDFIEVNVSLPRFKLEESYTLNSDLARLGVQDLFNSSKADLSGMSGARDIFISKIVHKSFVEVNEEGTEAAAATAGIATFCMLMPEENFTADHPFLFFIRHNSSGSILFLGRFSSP

Alpha-actinin-1 (human) = Alpha-actinin-1 (human) (UniProt P12814); assay: as above
[9] = biological target: Pyruvate kinase isozymes M1/M2 (human) (UniProt P14618); assay: as above
[10] = biological target: Endoplasmic reticulum resident protein ERp44 (human) (UniProt Q9BS26); assay: as above
UniProt Q9BS26, sequence (Q9BS26 30-406 limits assumed): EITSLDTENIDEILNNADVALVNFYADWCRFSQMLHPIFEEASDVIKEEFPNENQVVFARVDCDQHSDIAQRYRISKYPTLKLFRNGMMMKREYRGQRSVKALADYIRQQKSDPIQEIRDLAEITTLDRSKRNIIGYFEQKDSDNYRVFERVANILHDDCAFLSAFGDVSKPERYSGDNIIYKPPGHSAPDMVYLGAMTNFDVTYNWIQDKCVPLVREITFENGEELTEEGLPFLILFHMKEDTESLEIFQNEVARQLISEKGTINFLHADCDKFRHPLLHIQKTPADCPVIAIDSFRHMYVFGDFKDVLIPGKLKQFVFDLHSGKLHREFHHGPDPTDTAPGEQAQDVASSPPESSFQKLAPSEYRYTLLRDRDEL

Plastin-2 (human) = Plastin-2 (human) (UniProt P13796); assay: as above
cDNA FLJ76817 (human) = assay: as above
[11] = biological target: Bactericidal permeability-increasing protein (human) (UniProt P17213); assay: as above
[12] = biological target: Hemoglobin subunit beta (human) (UniProt P68871); assay: as above
[13] = biological target: Heat shock 70kDa protein 1A (human) (UniProt A8K5I0); assay: as above
cDNA FLJ55493 (human) = cDNA FLJ55493 (human) (UniProt B4DMF5); assay: as above
Coronin-1A (human) = Coronin-1A (human) (UniProt P31146); assay: as above
UniProt P31146, sequence (P31146 2-461 limits assumed): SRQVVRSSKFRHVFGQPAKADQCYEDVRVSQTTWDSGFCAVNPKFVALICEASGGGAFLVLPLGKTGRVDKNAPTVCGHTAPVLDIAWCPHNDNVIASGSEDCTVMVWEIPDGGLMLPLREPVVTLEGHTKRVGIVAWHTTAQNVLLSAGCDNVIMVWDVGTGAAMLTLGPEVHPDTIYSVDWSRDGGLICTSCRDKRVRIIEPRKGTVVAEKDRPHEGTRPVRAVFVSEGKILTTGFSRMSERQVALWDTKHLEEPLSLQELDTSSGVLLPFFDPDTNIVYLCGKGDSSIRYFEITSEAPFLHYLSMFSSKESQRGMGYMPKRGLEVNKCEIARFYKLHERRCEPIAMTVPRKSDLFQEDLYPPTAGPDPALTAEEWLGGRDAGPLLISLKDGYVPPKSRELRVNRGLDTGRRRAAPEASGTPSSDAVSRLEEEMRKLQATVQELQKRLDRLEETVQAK

Malic enzyme (human) = Malic enzyme (human) (UniProt P23368); assay: as above
Alpha-enolase (human) = Alpha-enolase (human) (UniProt P06733); assay: as above
UniProt P06733, sequence (P06733 2-434 limits assumed): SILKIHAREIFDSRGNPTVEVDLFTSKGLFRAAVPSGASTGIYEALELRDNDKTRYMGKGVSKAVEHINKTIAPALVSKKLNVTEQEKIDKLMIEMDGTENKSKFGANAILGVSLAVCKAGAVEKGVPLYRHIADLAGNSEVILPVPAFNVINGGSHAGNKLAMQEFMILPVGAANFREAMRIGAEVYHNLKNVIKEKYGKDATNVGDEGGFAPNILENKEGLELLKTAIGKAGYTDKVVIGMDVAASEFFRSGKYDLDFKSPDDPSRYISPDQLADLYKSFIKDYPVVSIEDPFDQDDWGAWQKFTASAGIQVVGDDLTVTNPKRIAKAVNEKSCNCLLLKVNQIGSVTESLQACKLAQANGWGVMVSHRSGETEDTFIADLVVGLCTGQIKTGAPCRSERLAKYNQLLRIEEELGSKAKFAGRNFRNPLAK

cDNA FLJ75120 (human) = cDNA FLJ75120 (human) (UniProt Q99536); assay: as above
UniProt Q99536, sequence (Q99536 2-393): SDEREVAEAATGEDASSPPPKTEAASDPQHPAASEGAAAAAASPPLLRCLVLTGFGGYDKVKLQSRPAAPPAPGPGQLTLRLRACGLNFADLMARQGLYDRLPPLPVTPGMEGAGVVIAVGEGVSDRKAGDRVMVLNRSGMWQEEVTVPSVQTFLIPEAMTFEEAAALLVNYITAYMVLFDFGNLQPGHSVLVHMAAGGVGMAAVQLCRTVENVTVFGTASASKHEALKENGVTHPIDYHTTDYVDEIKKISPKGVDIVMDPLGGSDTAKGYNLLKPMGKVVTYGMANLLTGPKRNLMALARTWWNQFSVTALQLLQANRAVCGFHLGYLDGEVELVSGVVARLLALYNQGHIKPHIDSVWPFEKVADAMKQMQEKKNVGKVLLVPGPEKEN

Actin (human) = Actin (human) (UniProt P63261); assay: as above
[14] = biological target: Peptidoglycan recognition protein (human) (UniProt O75594); assay: as above
Myosin-9 (human) = Myosin-9 (human) (UniProt P35579); assay: as above
cDNA, FLJ92148 (human) = cDNA, FLJ92148 (human) (UniProt B2R4M6); assay: as above
[15] = biological target: Guanine nucleotide-binding protein G(i) (human) (UniProt P04899); assay: as above
UniProt P04899, sequence (P04899 2-355 limits assumed): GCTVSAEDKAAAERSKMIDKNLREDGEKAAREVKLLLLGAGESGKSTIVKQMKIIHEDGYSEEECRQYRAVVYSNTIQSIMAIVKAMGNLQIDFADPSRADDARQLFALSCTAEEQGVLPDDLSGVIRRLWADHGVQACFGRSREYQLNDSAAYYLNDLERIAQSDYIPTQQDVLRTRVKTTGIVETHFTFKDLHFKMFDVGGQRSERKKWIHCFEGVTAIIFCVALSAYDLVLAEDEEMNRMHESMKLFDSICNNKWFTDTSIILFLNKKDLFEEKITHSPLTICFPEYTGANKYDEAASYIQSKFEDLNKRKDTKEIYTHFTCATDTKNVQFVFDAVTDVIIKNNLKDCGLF

[16] = biological target: Adenylyl cyclase-associated protein (human) (UniProt B2RDY9); assay: as above
Protein S100-A8 (human) = Protein S100-A8 (human) (UniProt P05109); assay: as above
[17] = biological target: human CD11b (Integrin alpha-M), full length (human) (UniProt P11215); assay: as above
Serum albumin (human) = Serum albumin (human) (UniProt P02768); assay: as above
[18] = biological target: Adipocyte plasma membrane-associated protein (human) (UniProt Q9HDC9); assay: as above
UniProt Q9HDC9, sequence (Q9HDC9 2-416 limits assumed): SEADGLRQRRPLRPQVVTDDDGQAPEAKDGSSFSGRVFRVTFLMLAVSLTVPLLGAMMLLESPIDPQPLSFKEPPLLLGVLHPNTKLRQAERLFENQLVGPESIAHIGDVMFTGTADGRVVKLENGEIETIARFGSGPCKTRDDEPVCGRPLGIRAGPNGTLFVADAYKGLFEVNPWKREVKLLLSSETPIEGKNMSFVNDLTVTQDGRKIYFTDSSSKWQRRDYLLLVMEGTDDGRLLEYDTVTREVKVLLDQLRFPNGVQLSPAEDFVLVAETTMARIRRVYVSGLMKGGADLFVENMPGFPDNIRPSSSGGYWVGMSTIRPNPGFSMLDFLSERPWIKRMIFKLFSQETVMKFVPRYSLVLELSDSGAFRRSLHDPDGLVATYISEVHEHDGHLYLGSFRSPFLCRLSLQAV

Catalase (human) = Catalase (human) (UniProt P04040); assay: as above
[19] = biological target: Hemoglobin subunit alpha (human) (UniProt P69905); assay: as above
[20] = biological target: ATP synthase subunit beta (human) (UniProt P06576); assay: as above
UniProt P06576, sequence (P06576 48-529): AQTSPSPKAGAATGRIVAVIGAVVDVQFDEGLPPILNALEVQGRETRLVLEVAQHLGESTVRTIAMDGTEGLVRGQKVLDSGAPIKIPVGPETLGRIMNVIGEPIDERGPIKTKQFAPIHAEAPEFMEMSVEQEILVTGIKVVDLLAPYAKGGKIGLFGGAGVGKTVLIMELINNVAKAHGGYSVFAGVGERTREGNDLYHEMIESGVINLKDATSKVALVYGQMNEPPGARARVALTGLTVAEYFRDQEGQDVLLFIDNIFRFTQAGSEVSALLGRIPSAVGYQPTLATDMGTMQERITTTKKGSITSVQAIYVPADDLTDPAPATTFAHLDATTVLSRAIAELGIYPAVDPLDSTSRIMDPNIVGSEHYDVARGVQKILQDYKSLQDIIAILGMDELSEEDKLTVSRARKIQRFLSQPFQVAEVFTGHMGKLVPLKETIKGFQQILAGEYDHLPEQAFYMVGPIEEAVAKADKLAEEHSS

[21] = biological target: Putative uncharacterized protein LCN2 (human) (UniProt P80188); assay: as above
UniProt P80188, sequence (P80188 21-198 limits assumed): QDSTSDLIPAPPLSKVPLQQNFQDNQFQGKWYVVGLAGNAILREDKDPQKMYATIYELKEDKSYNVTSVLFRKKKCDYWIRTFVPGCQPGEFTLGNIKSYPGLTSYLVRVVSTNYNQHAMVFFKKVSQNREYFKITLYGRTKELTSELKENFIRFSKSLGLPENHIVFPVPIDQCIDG

[22] = biological target: 6-phosphogluconate dehydrogenase (human) (UniProt P52209); assay: as above
[23] = biological target: human recombinant Mac-1 (CD11b/CD18, integrin alphaM/beta2), R&D Systems (human) (UniProt P05107); assay: SPR (Biacore T100), Mac-1 immobilised on CM5 chip, LukAB as analyte, multi cycle kinetics
[24] = biological target: human CD11b (Integrin alpha-M), full length (human) (UniProt P11215); assay: cell-based or functional assay
[25] = biological target: human recombinant CD11b I domain (N-terminal 6x-His, C-terminal 6x-glycine linker and 3x-Flag) (human) (UniProt P11215); assay: SPR

His-tagged LukAB (leukotoxin AB, purified recombinant from S. aureus Newman)
Kd [1]: 1.92 nM | # of peptides (cDNA FLJ78440 (human)): 8 peptides | # of peptides (CD63 antigen (human)): 3 peptides | # of peptides (SFPQ protein (human)): 4 peptides | # of peptides [2]: 5 peptides | # of peptides (Myeloperoxidase (human)): 7 peptides | # of peptides [3]: 3 peptides | # of peptides [4]: 3 peptides | # of peptides (Cntm_P13645): 10 peptides | # of peptides [5]: 3 peptides | # of peptides (Transketolase (human)): 4 peptides | # of peptides [6]: 3 peptides | # of peptides [7]: 12 peptides | # of peptides (cDNA FLJ55635 (human)): 7 peptides | # of peptides [8]: 6 peptides | # of peptides (cDNA FLJ53963 (human)): 3 peptides | # of peptides (Alpha-actinin-1 (human)): 3 peptides | # of peptides [9]: 9 peptides | # of peptides [10]: 4 peptides | # of peptides (Plastin-2 (human)): 8 peptides | # of peptides (cDNA FLJ76817 (human)): 3 peptides | # of peptides [11]: 6 peptides | # of peptides [12]: 5 peptides | # of peptides [13]: 5 peptides | # of peptides (cDNA FLJ55493 (human)): 5 peptides | # of peptides (Coronin-1A (human)): 6 peptides | # of peptides (Malic enzyme (human)): 5 peptides | # of peptides (Alpha-enolase (human)): 3 peptides | # of peptides (cDNA FLJ75120 (human)): 5 peptides | # of peptides (Actin (human)): 7 peptides | # of peptides [14]: 4 peptides | # of peptides (Myosin-9 (human)): 3 peptides | # of peptides (cDNA, FLJ92148 (human)): 4 peptides | # of peptides [15]: 3 peptides | # of peptides [16]: 4 peptides | # of peptides (Protein S100-A8 (human)): 5 peptides | # of peptides [17]: 17 peptides | # of peptides (Serum albumin (human)): 13 peptides | # of peptides [18]: 5 peptides | # of peptides (Catalase (human)): 3 peptides | # of peptides [19]: 4 peptides | # of peptides [20]: 5 peptides | # of peptides [21]: 5 peptides | # of peptides [22]: 3 peptides | Kd [23]: 38.4 nM | percent depletion of CD11b+ HEK293T cells (CD11b transfected), 40 µg/ml LukAB, 2 hours, flow cytometry [24]: 80 to 90% | difference in Kd against the LukAB-murine CD11b I-domain interaction [25]: 8 to 9 logs
